These results are taken from US20260152573A1 (ARGENX, published 2026).

Assay [1] deals with T1, neonatal Fc receptor (FcRn), endogenous in U937 cells (human, UniProt P55899 24-365; P61769 21-119).
T1 construct: whole, on cells; Free FcRn was stained intracellularly after fixation and permeabilisation
Put plainly: cell-based FcRn occupancy assay on U937 cells, flow cytometry; free FcRn stained with anti-FcRn-Fab AF647.

Assay [2] has as its target T1, neonatal Fc receptor (FcRn), endogenous …. Description: FcRn occupancy, FACS, U937 cells, without albumin.
Description: (§1) Next, FcRn occupancy was tested using a cell-based FcRn occupancy assay in the presence or absence of albumin. […] Cells (HEK FcRn mut or U937) were plated in a 96-well microplate. Cells were incubated with test article for two hours, shaking at 37° C., pH 7.4 in FACS buffer. Plates were then transferred immediately on ice and cells were collected by centrifugation at 4° C. Cells stained for viability in FACS buffer at pH 6 and then fixed/permeabilized in permeabilization buffer at pH 6. […] Cells were analyzed by FACS, ensuring that they are kept on ice until immediately prior to analysis.
For assay [3] the target is unchanged. Put plainly: FcRn occupancy, FACS, U937 cells, with albumin.
Description: as §1
Assay [4] addresses T2, cynomolgus monkey serum albumin (cynomolgus monkey, UniProt A2V9Z4 25-608).
T2 construct: Immobilised on SPR chips; also called cynoSA; cynomolgus albumin
Put plainly: SPR Biacore 8K+ SCK, albumin on chip, pH 7.4.

In assay [5] the target is T3, human serum albumin (human, UniProt P02768 25-609).
T3 construct: Immobilised on SPR chips; also added in solution in the FcRn occupancy assays; also called HSA; humanSA
Put plainly: SPR Biacore 8K+ SCK, albumin on chip, pH 7.4.

For assay [6], the target named is T3, human serum albumin. Description: SPR Biacore 8K+ SCK, albumin on chip, pH 5.5.
In assay [7] the target is T2, cynomolgus monkey serum albumin. Put plainly: SPR Biacore 8K+ SCK, albumin on chip, pH 7.4. The source holds these as a separate data set.
Assay [8] deals with T3, human serum albumin. Description: SPR Biacore 8K+ SCK, albumin on chip, pH 7.4; pH 7.4.
Assay [9] has as its target T2, cynomolgus monkey serum albumin. Description: SPR Biacore 8K+ SCK, albumin on chip, pH 5.5.
The target is the same in assay [10]. Description: screening by ELISA/Biacore.
For assay [11], the target named is T4, isolated domain II of serum albumin (UniProt P02768 213-409, limits assumed).
T4 construct: domain: DII; also called isolated DII
Put plainly: screening by ELISA/Biacore.

In assay [12] the target is T5, mouse serum albumin (mouse, UniProt P07724 25-608).
T5 construct: Immobilised on SPR chips; also called mouseSA; MSA
Description: screening by ELISA/Biacore.

In assay [13] the target is T3, human serum albumin. Put plainly: SPR (Biacore), albumin binding at pH 5.5 and pH 7.4; concentration not given; the legend says only albumin, the example names albumin coated and construct flown over.

Substitutions are numbered along the chain they refer to.

T1 sequence (P55899 24-365 limits assumed, chain 1 of 2): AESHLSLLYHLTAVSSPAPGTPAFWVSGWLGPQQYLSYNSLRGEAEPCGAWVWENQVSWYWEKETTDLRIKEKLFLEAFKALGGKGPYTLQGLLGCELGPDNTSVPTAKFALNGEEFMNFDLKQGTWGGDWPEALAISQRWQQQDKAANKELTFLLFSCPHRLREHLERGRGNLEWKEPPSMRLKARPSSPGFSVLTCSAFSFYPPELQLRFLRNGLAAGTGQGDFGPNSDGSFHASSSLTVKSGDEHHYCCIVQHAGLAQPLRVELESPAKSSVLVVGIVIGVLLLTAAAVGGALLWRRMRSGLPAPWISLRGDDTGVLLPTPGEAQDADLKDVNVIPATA
T1 sequence (P61769 21-119 limits assumed, chain 2 of 2): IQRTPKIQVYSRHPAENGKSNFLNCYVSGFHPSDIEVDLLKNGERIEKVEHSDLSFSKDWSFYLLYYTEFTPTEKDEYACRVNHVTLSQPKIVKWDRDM

B1: mAb37-OA-ABDEG (antibody, human IgG1, kappa)
heavy: QVQLVQSGAEVMKPGSSVKVSCKASGYTFSWYHLEWVRQAPGHGLEWMGEIDPGTFTTNYNEKFKARVTFTADTSTSTAYMELSSLRSEDTAVYYCARFSHFSGSNHDYFDYWGQGTLVTVSSASTKGPSVFPLAPSSKSTSGGTAALGCLVKDYFPEPVTVSWNSGALTSGVHTFPAVLQSSGLYSLSSVVTVPSSSLGTQTYICNVNHKPSNTKVDKKVEPKSCDKTHTCPPCPAPELLGGPSVFLFPPKPKDTLYITREPEVTCVVVDVSHEDPEVKFNWYVDGVEVHNAKTKPREEQYNSTYRVVSVLTVLHQDWLNGKEYKCKVSNKALPAPIEKTISKAKGQPREPQVYTLPPSRDELTKNQVSLWCLVKGFYPSDIAVEWESNGQPENNYKTTPPVLDSDGSFFLYSKLTVDKSRWQQGNVFSCSVMHEALKFHYTQKSLSLSPG
light: EIVMTQSPATLSVSPGERATLSCRASQSIGTNIHWYQQKPGQAPRLLIYYASESISGIPARFSGSGSGTEFTLTISSLQSEDFAVYYCQQSWSWPTTFGGGTKVEIKRTVAAPSVFIFPPSDEQLKSGTASVVCLLNNFYPREAKVQWKVDNALQSGNSQESVTEQDSKDSTYSLSSTLTLSKADYEKHKVYACEVTHQGLSSPVTKSFNRGEC
chain: DKTHTCPPCPAPELLGGPSVFLFPPKPKDTLYITREPEVTCVVVDVSHEDPEVKFNWYVDGVEVHNAKTKPREEQYNSTYRVVSVLTVLHQDWLNGKEYKCKVSNKALPAPIEKTISKAKGQPREPQVYTLPPSRDELTKNQVSLSCAVKGFYPSDIAVEWESNGQPENNYKTTPPVLDSDGSFFLVSKLTVDKSRWQQGNVFSCSVMHEALKFHYTQKSLSLSPG
notes: it is not used here as a chain; also called one-armed NT-mAb37 Fab attached to Fc-ABDEG via natural hinge region
As to B1, in assay [1], the “IC50 (read off the curve)” value is around 1 nM.

B2: OA-Alb23-Fc-ABDEG (Fc fusion)
chain: EVQLLESGGGLVQPGGSLRLSCAASGFTFRSFGMSWVRQAPGKGPEWVSSISGSGSDTLYADSVKGRFTISRDNSKNTLYLQMNSLRPEDTAVYYCTIGGSLSRSSQGTLVTVSSDKTHTCPPCPAPELLGGPSVFLFPPKPKDTLYITREPEVTCVVVDVSHEDPEVKFNWYVDGVEVHNAKTKPREEQYNSTYRVVSVLTVLHQDWLNGKEYKCKVSNKALPAPIEKTISKAKGQPREPQVYTLPPSRDELTKNQVSLWCLVKGFYPSDIAVEWESNGQPENNYKTTPPVLDSDGSFFLYSKLTVDKSRWQQGNVFSCSVMHEALKFHYTQKSLSLSPG
Fc: B1 chain
As to B2, the values for the IC50 in assay [2] and in assay [3] were 8.5 nM and 25 nM, respectively. Moreover, the “% max occupancy” value in assay [3] turned out to be 51.1%.

B3: Alb23 (VHH)
VHH: EVQLLESGGGLVQPGGSLRLSCAASGFTFRSFGMSWVRQAPGKGPEWVSSISGSGSDTLYADSVKGRFTISRDNSKNTLYLQMNSLRPEDTAVYYCTIGGSLSRSSQGTLVTVSS
notes: VHH alone, injected in solution; also called VHH-Alb23_Parental (#1); Alb23 parental
On to B3, for which the equilibrium dissociation constant (Kd) in assay [4] is 2.68 nM; in [5], 2.37 nM; in [6], 1.42 nM; in [7], 2.68 nM; in assay [8], 2.37 nM; in [9], 1.32 nM.

B4: TA-Alb23-Fc-ABDEG (Fc fusion)
chain: B2 chain with W261T
notes: Two Alb23 VHH fragments at the N-termini of both Fc domains of efgartigimod; also called two-armed N-terminal anti-HSA-Fc-ABDEG
In the case of B4, in [2], the IC50 is 7.5 nM. Moreover, in assay [3], the “% max occupancy” value was 39.1% and the midpoint of inhibition, the IC50, lay at 389 nM.

B5: 2H11 (VHH)
VHH: ELQVVESGGGLVQAGGSLRLSCAASGRTFRSNTMGWFRQAPGKEREFVAAITWSGGTTYYADSVKGRFAISGDNAKNTVYLQMNSLKPEDTAVYYCAAEGPKWEPWNGIYHPADFGSWGQGTQVTVSS
notes: Clone from llama phage display libraries; also called 2H11 parental VHH; clone 2H11
As for B5, the binding result in assay [10], in assay [11] and in assay [12] was “no binding” throughout.

B6: TA-Fc-ABDEG-Alb23 (Fc fusion)
chain: DKTHTCPPCPAPELLGGPSVFLFPPKPKDTLYITREPEVTCVVVDVSHEDPEVKFNWYVDGVEVHNAKTKPREEQYNSTYRVVSVLTVLHQDWLNGKEYKCKVSNKALPAPIEKTISKAKGQPREPQVYTLPPSRDELTKNQVSLTCLVKGFYPSDIAVEWESNGQPENNYKTTPPVLDSDGSFFLYSKLTVDKSRWQQGNVFSCSVMHEALKFHYTQKSLSLSPGGGGGSGGGGSGGGGSGGGGSEVQLLESGGGLVQPGGSLRLSCAASGFTFRSFGMSWVRQAPGKGPEWVSSISGSGSDTLYADSVKGRFTISRDNSKNTLYLQMNSLRPEDTAVYYCTIGGSLSRSSQGTLVTVSS
notes: also called Fc-ABDEG-Alb23 (two-armed)
B6: in [3], the “% max occupancy” value amounted to 69.7% and half-maximal inhibition (IC50) required 14.5 nM. Besides, the binding result in assay [13] is recorded as “binds”.
